Measured values reported in article doi:10.1101/367656.

Biological target: T1, RIG-IΔN (2CARD deletion);RIPLET (Homo sapiens;Homo sapiens, UniProt O95786;Q8IUD6 201-925;1-432, |)
T1 sequence 1: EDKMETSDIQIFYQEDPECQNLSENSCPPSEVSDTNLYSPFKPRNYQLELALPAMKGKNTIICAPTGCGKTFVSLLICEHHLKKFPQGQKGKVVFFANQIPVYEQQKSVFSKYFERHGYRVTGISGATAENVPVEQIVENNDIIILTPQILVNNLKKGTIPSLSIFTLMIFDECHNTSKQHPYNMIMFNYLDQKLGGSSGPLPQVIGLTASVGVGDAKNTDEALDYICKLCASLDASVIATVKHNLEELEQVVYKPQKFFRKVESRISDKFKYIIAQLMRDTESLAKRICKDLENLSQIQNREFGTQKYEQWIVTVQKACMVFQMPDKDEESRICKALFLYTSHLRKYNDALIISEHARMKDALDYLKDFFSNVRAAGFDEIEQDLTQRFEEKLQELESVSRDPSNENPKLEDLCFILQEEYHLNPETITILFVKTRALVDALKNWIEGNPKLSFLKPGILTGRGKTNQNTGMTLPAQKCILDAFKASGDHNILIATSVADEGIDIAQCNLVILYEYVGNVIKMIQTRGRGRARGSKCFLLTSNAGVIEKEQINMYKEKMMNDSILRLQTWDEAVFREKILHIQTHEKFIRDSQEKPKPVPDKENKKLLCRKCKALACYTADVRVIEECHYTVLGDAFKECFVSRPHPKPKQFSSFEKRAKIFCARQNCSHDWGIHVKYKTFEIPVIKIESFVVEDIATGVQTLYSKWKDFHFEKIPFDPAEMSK
T1 sequence 2: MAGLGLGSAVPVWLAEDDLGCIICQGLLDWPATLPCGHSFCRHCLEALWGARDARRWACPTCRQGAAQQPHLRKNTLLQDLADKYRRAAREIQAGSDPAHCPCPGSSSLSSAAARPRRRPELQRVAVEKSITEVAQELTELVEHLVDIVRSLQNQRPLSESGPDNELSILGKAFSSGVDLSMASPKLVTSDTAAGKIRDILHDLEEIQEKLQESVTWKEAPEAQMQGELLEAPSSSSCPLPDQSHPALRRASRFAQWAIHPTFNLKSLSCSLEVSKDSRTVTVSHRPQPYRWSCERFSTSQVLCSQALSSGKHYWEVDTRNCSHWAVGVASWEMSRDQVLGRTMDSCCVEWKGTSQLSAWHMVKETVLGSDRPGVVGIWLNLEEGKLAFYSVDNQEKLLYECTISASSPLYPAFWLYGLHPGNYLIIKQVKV
Experiment: EMSA

B1: 21 bp dsRNA (dsRNA)
RNA 1: GAGUCACGACGUUGUAAAAAA
RNA 2: UUUUUUACAACGUCGUGACUC
modifications: 5'ppp
B1: binds.
